Measurements reported in patent publication US8460669B2, “Compositions and methods for identifying response targets and treating flavivirus infection responses” (Academia Sinica, priority 2005, dated 2013).
Residue numbers refer to the chain shown, from its start. Blank lines part the entries; values can stand above or below the molecule they belong to.

Molecular target: T1, DVLR1/CLEC5A (Homo sapiens, UniProt Q9NY25)
T1 construct: endogenous in cells; host or cells: human CD14+ PBMC-derived macrophages (M-CSF, 6 days)
T1 sequence (Q9NY25 1-188): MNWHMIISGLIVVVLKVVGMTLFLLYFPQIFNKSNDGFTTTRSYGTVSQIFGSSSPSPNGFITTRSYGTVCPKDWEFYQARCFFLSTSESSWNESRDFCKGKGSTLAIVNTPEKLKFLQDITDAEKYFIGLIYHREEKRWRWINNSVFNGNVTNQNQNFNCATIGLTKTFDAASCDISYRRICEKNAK
Assay: DV-induced TNF-α secretion from human macrophages with anti-DVLR1/CLEC5A mAbs
Type: cell-based
Details: for Antagonistic DV1 (suppression of DV-induced TNF-α secretion) / Antagonistic DV2 (suppression of DV-induced TNF-α secretion) / Antagonistic DV3 (suppression of DV-induced TNF-α secretion) / Antagonistic DV4 (suppression of DV-induced TNF-α secretion): antibody 10 μg/sample, p vs isotype control, m.o.i.=5, 36 h p.i.; for TNF-α release from macrophages after infection with DEN1, DEN2, DEN3 and DEN4: dose-dependent manner, ELISA of culture supernatants
Text: Monoclonal antibodies against DVLR1/CLEC5A were generated using standard techniques. Briefly, mice were immunized with DVLR-1.Fc fusion protein, and hybridomas were formed by fusing spienocytes from the mice with P3/NSI/1-Ag4-1 [NS-1] myeloma cells (ATCC TIB-18). Among the mAbs generated, clone 9B12, the subclones of 3E12 (clones 3E12A2, 3E12C1, 3E12G9), and clone 8H8F5 suppressed TNF-α release from macrophages after infection with DEN1 (strain 766733A), DEN2 (strain PL046), DEN3 (strain H-87), and DEN4 (strain 866146A) in a dose-dependent manner. […] In accordance with standard nomenclature, each antibody is referred to via the clone number of the hybridoma that secretes it.
According to embodiments illustrated in FIG. 19, DVLR1/CLEC5A is critical for DV-mediated TNF-α, but not IFN-α, secretion. More specifically, FIG. 19a illustrates the dose-dependency of DV and UV-DV induced TNF-α secretion by macrophages measured by ELISA at 6 h and 12 h p.i. FIG. 19b illustrates the kinetics of TNF-α expression after DV infection (m.o.i.=5). FIG. 19c illustrates the effects of DVLR1/CLEC5A and DC-SIGN shRNAs on the secretion of TNF-α, IL-6, MIP1-α, IL-8, IP-10, and IFN-α from DV-infected macrophages (m.o.i.=5). In FIG. 19d, knockdown experiments with receptor specific shRNAs illustrating that DV-induced IFN-α secretion is via the TLR7-MyD88 pathway and TNF-α secretion is via DVLR1/CLEC5A-TLR7-MyD88 pathway. FIG. 19e illustrates antagonistic anti-DVLR1/CLEC5A mAbs inhibiting TNF-α secretion in response to DV serotypes 1-4 is inhibited (see Table 3).
M.R. mAb (anti-mannose receptor mAb; mIgG1) and murine IgM (mIgM) were used as negative controls. In both FIG. 19d and FIG. 19e, macrophages were infected with DV (m.o.i.=5) and harvested at 36 h p.i. for cytokine assays. Data are expressed as mean±s.d. of three independent experiments (using material from at least three different donors). Two-tailed, Student's t-tests were performed. “ND” represents not detected.

Antagonistic DV1 (suppression of DV-induced TNF-α secretion): ** (“**” - p < 0.01)
Antagonistic DV2 (suppression of DV-induced TNF-α secretion): ** (“**” - p < 0.01)
Antagonistic DV3 (suppression of DV-induced TNF-α secretion): ** (“**” - p < 0.01)
Antagonistic DV4 (suppression of DV-induced TNF-α secretion): * (“*” - p < 0.05)
TNF-α release from macrophages after infection with DEN1, DEN2, DEN3 and DEN4: suppressed
B1: 3E12A2: anti-human DVLR1/CLEC5A monoclonal antibody, subclone of 3E12; VH SEQ ID NO: 60, VL SEQ ID NO: 61 (antibody, V domains shown)
VH: QVQLEESGPELVKPGASVKLSCKASGYTFTEYIIHWVKQRSGQGLEWIGWFYPGSGSIKYNEKFKDKATLTADKSSSTVYMELSGLTSEDSAVYFCARHDGYSYFDYWGQGTTLTV
VL: QSPSSLAVSAGEKVTMSCKSSQSLLNSRTRKNYLAWYQQKPGQSPKLLIYWASTRESGVPDRFTGSGSGTDFTLTISSVQAEDLAVYYCKQSYNLYTFGGGTKLEIK

Antagonistic DV2 (suppression of DV-induced TNF-α secretion): ** (“**” - p < 0.01)
Antagonistic DV3 (suppression of DV-induced TNF-α secretion): ** (“**” - p < 0.01)
TNF-α release from macrophages after infection with DEN1, DEN2, DEN3 and DEN4: suppressed
B2: 3E12G9: anti-human DVLR1/CLEC5A monoclonal antibody, subclone of 3E12; VH SEQ ID NO: 62, VL SEQ ID NO: 63 (antibody, V domains shown)
VH: B1 VH with E6Q
VL: B1 VL

Antagonistic DV1 (suppression of DV-induced TNF-α secretion): * (“*” - p < 0.05)
Antagonistic DV2 (suppression of DV-induced TNF-α secretion): *** (“***” - p < 0.001)
Antagonistic DV3 (suppression of DV-induced TNF-α secretion): ** (“**” - p < 0.01)
Antagonistic DV4 (suppression of DV-induced TNF-α secretion): * (“*” - p < 0.05)
TNF-α release from macrophages after infection with DEN1, DEN2, DEN3 and DEN4: suppressed
B3: 8H8F5: anti-human DVLR1/CLEC5A monoclonal antibody; VH SEQ ID NO: 64, VL SEQ ID NO: 65 (antibody, V domains shown)
VH: ESGRGLVQPGGSRKLSCAASGFTFSTSGMHWVRQAPEKGLEWVAYISSGSTTIYHADTVKGRFTISRDNPKNTLFLQMTSLRSEDTAMYYCARSGQFGNYFDYWGQGTTLTVSS
VL: MTQSPKFLLVSAGDRVTLTCKASQSVNNDVYWYQQEPGQSPKLLIYYASNRYTGVPDRFTGSGYGTDFTFTISTVQSEDLAVYFCQHDYSSPYTFGGGTKLEIKR
